The target of the experiment is T1, recombinant human ZNRF3 extracellular domain (human, UniProt Q9ULT6 56-219).
T1 construct: extracellular domain; also called huZNRF3; human ZNRF3 ECD
T1 sequence (looked up): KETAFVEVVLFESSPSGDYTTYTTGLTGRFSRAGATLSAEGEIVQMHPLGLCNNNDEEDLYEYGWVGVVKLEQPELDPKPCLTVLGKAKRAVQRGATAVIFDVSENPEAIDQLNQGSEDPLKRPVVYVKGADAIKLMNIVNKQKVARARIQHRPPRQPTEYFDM
The experiment can be described thus: SPR Biacore 8K; antibody captured on Protein A; ZNRF3 ECD analyte; 25 C. On the procedure:
Antibodies were screened for binding to recombinant human RNF43 and ZNRF3 ECDs using a Biacore® 8 k instrument (GE Life Sciences). Briefly, antibodies diluted to 1 μg/ml in 1×HBSP buffer (Cytiva, BR100368) were captured on a Sensor Chip Protein A (GE Life Sciences) using a flow rate of 10 μl/minute and a contact time of 60 seconds. Binding of recombinant human RNF43 and ZNRF3 extracellular domain to the captured antibodies was analyzed at 25° C. using a single cycle kinetics method with a flow rate of 30 μl/minute, a contact time of 180 seconds and a dissociation time of 600 seconds. The concentration of recombinant human RNF43 and ZNRF3 extracellular domain in the single cycle kinetics were 0, 0.8, 4, 20, and 100 nM. Between cycles, the chip was regenerated using 10 mM Glycine HCl pH 1.5 injected for 30 seconds at 30 μl/minute. Data were evaluated using Biacore 8K Evaluation software (GE Life Sciences). Kinetic constants were obtained using a 1:1 binding model with the parameter RI set to zero. Cell surface ligase antibodies with sub-nanomolar affinities may provide advantages in certain instances, for example, in the degradation efficiency which is correlated with the durability of the ternary complex as shown in FIG. 5D.
For orientation: In SPR one partner is held on a chip, and binding of the other changes the refractive index at the surface.

B1: ZNRF3-131 (antibody, V domains shown)
VH: EVQVVESGGGLVQPGRSLKVSCAASGFTFSRYGMAWVRQAPTKGLEWVASISTGGENTYYRDSVKGRFTISRDNVKNTLYLQMDSLRSEDTATYYCARHGRVLNYFDYWGQGVMVTVSL
VL: DIQMTQSPASLSASLGETVSIECLTSEDIYTYLAWYQQKPGKSPHLLIFAASRLQDGVPSRFSGSGSGTQYSLKISGMQPEDEGDYFCLQGSKFPYTFGAGTKLDLK
notes: Rat clone; VH/VL only
For B1, the Kd was 2390 pM.

B2: ZNRF3-101 (antibody, V domains shown)
VH: QVQLKESGPGLVQPTQTLSLTCTVSGFSLTSSTVSWVRQPPGKGLEWIAAISSAENTYYNSGLKSRLSISRDTSKSQVFLKMNSLQTEDTAMYFCAGGRILETLFDSWGQGVMVTVSS
VL: DIVLTQSPALAVSLGQRATISCKTNQNVDFYGKTYMHWYQQKRGQQPKLLIYLASNLASGIPARFSGRGSGTDFTLTIDPVATDDTATYYCQQTRSLPPTFGAGTKLELK
notes: Rat clone; VH/VL only
Consider B2, for which the dissociation constant Kd worked out at 70 pM.

B3: ZNRF3-195 (antibody, V domains shown)
VH: EVQLVESGGGLVQPGNSLNLSCSASGFPFSTYGMHWIRQAPGKGLDWVAYISYNSGTVYADAVKGRFTISRDNAKNTLYLQLNSLKSEDTAIYYCARGYYDGYYRYWGQGVMVTVSS
VL: DIVMTQSPFSLAVSEGEMVTINCKSSQSLLSSGNQKNYLAWYQQRPGQSPKLLIYHASTRQSGVPDRFIGSGSGTDFTLTISDVQAEDLADYYCLQHYSSPTFGSGTKLEIK
notes: Rat clone; VH/VL only
B3: the Kd stood at 270 pM.

B4: ZNRF3-6 (antibody, V domains shown)
VH: EVQLVESGGGLVPPGKSLKLSCSASGFPFSNYGMHWIRQAPGKGLDWVGYISSNSGTIYADAVKGRFTISRDNAKNTLYLLINSLKSEDTAMYYCARGYFDGYYRFWGQGVMVTVSS
VL: DIVMTQSPFSLAVSEGDMVTIMCRSSQSLLSSGNQKNYLAWYQQKPGQSPKLLIYHASTRQSGVPDRFIGSGSGTDFTLTISDVQAEDLADYYCLQHYSSPTFGSGTKLEIK
notes: Rat clone; VH/VL only
Regarding B4, the Kd worked out at 120 pM.

B5: ZNRF3-117 (antibody, V domains shown)
VH: EIQLQESGPGLVKPSQSLSLTCSVTGYTITSDYDWSWIRKFPGNKMEWMGYINYSGSTNYNPSLKSRISFTRDTSKNQFFLQLNSITTDDTATYYCARYGPYYGFSDWYFDFWGPGTMVTVSS
VL: DVQMTQSPSYLAASPGESVSISCKASQSISNYLAWYQQKPGKTYRLLIYSGSTLQSGTPSRFSGSGSGTDFTLTIRSLEPEDFGLYYCQQYYEKPLTFGSGTKLEIK
notes: Rat clone; VH/VL only
Consider B5, for which the Kd turned out to be 200 pM.

B6: ZNRF3-333 (antibody, V domains shown)
VH: QSLEESGGGLVQPEGSLTLTCTASGIDFSARSYMCWVRQAPGKGLEWVACIYTGSSGSTYYANWAKGRFTISKTSSTTVTLRMTSLTAADTASYFCARGAYVGYGFAAYFTLWGPGTLVTVSS
VL: DIVMTQTPASVEAAVGGTVTINCQASQSISSYLAWYQQKPGQPPKLLIYYASNLESGVPSRFKGSGSGTQFTLTISDLECADAATYYCQAYYSSITGWAFGGGTEVVVK
notes: Rabbit clone; VH/VL only
Consider B6, for which the Kd was 8700 pM.

B7: ZNRF3-17 (antibody, V domains shown)
VH: EVQLVESGGGLVQPGGSLKLSCAASGFTFSNYDMAWVRQAPTKGLEWVASISTGGGKTYYRDSVKGRLTISRDNAKNTQYLQMDSLRSEDTATYYCARLGPAYSGEWFAYWGQGTLVTVSS
VL: DTVLTQSPALAVSPGERVTISCGASEGVNTRMHWYQQRSGQQPKLLIYGSSNLDSGVPDRFSGSGSGTDFTLTIDPVEAKDAATYFCQQSWNVPNTFGAGTKLELK
notes: Rat clone; VH/VL only
Regarding B7, the Kd amounted to 40 pM.

B8: ZNRF3-55 (antibody, V domains shown)
VH: EVHLVESGGGLVQPGGSLKLSCAASGFTFSNYDMAWVRQAPTRGLEWVASISPGGGKTYYRDSVKGRLTISRNNAENTQYLQIDSLRSEDTATYYCSRLGPAYSGEWFAYWGQGTLVTVSS
VL: DTVLTQSPALTVSPGDKITISCRASEGVNTRIHWYQQKSGQQPKLLIYGASNLDSGVPDRFSGSGFGTDFTLTIDPVEASDTATYFCQQSWNVPHTFGGGTKLELK
notes: Rat clone; VH/VL only
Take B8: the equilibrium dissociation constant (Kd) was found to be 20 pM.

B9: ZNRF3-172 (antibody, V domains shown)
VH: EVQLAESGGGLEQPGRSLKLSCAASGFTFSNYDMAWVRQAPTKGLEWVASIIASGGTTYYRDSVKGRFTVSRDNAKSTLYLQMDSLRSEDTATYYCARHGVGSYDWFADWGQGTLVTVSS
VL: DIVLTQSPALAVSLGQRATISCRASQSVTISGFNLMHWYQQKPGQQPKLLIYRASNLAFGIPARFSGSGSGTDFTLTINPVQADDITTYYCQQSRKSRTFGGGTKLELK
notes: Rat clone; VH/VL only
B9: the dissociation constant Kd stood at 210 pM.

B10: ZNRF3-30 (antibody, V domains shown)
VH: EVQLAESGGGLEQPGRSLKLSCAASGFTFSNYDMAWVRQAPTRGLEWVASILTSGGTTYYRDSVKGRFTVSRDNAKSTLYLQMDSLRSEDTATYYCARHGVGSYDWFADWGQGTLVTVSS
VL: DIVLTQSPALAVSLGQRATISCRASQSVTISGYNLMHWYQQKPGQQPKLLIYRASNLAFGIPARFSGSGSGTDFTLTINPVQADDITTYYCQQSRKSRTFGGGTRLELK
notes: Rat clone; VH/VL only
Regarding B10, the Kd came to 120 pM.

B11: ZNRF3-179 (antibody, V domains shown)
VH: EVQLAESGGGLEQPGRSLKLSCAASGFTFSNYDMAWVRQAPTKGLEWVASIITSGDTTYYRDSVKGRFTVSRDNAKSTLYLQMDSLRSEDTATYHCARHGVGSYDWFADWGQGTLVTVSS
VL: DIVLTQSPALAVSLGQRATISCRASQSVTISGYNLMHWYQQKPGQQPKLLIYRASNLAFGIPARFSGSGSGTDFTLTINPVQADDITTYYCQQSRKSRTFGGGTKLELK
notes: Rat clone; VH/VL only
For the molecule B11, the Kd worked out at 110 pM.

B12: ZNRF3-128 (antibody, V domains shown)
VH: EVQLVESGGGLVQPGKSLKLSCSASGFTFSSYGMHWIRQAPGKGLDWVAYISTNSATVYADAVKGRFTISRDNAKNTLYLQLNSLKSEDTAIYYCARSGYTTYMPFTYWGQGTLVTVSS
VL: DVLMTQTPVSLPVSLGGQVSISCRSSQSLVHSDGNTYLHWYLQKPGQSPQLLIYRVSNRFSGVSDRFSGSGSGTDFTLKISRVEPDDLGIYYCLQTTHFLTWTFGGGTKLELK
notes: Rat clone; VH/VL only
As to B12, the Kd was 3160 pM.

B13: ZNRF3-171 (antibody, V domains shown)
VH: QVQLHQSGTELARPGTSVKLSCKASGYTFSRFYINWVKKRPGQGLEWIGYIDPGNGGTFHSEKFKDKASLTADTSSSTAYMVLGSLAPEDSAFYFCVRGYYSSYDWFAYWGQGTLVTVSS
VL: DIQLTQSPSSMSASLGDRVSLTCQSSQGIGNYLSWYQHKPGEPPKPILYYATNLADGVPSRFSGSRSGSDYSLTISSLESEDTAIYYCLQYDEYPYTFGPGTKLELR
notes: Rat clone; VH/VL only
As to B13, the Kd worked out at 1010 pM.

B14: ZNRF3-163 (antibody, V domains shown)
VH: EVQLEESGGGLVQPGRSMKFSCAASGFTFSNYYMAWVRQAPSKGLEWVASISTGGGDVYYRDSVKGRFTISRDNAKSTLYLQMDSLRSEDTATYYCARHSGGRIRARGHYFDYWGQGVMVTVSS
VL: DIQMTQSPASLSASLGETVSIECLASEDISNDLAWYQQKSGKSPQVLIYGVSRLQDGVPSRFSGSGSGTRYSLKISGMQPEDEADYFCQQSYKYPYTFGAGTKLELK
notes: Rat clone; VH/VL only
In the case of B14, the equilibrium dissociation constant (Kd) came out at 610 pM.

B15: ZNRF3-90 (antibody, V domains shown)
VH: EVQLVESGGGLVQPGRSMKLSCAASGFTFSNYYMAWVRQAPRKGLEWVASITTGGTNTYYRDSVRGRFTISRDNAKSTLYLQMDSLRSEETATYYCARHSGGLIRARGHYFHYWGQGVMVTVSS
VL: DIQMTQSPASLSASLGEIVSIECLASEGISNDLAWYQQKSGKSPQVLVYAASRLQDGVPSRFSGSGSGTRYSLKISGMQPEDEADYFCQQSYTYPYTFGAGTKLELK
notes: Rat clone; VH/VL only
Turning to B15, the Kd was 270 pM.

As a reminder, the Kd is the constant that tells how readily two partners part at equilibrium.
